The values below come from the supplement of paper PMC10567573.

B1: CCDC6 (parent)
chain: TLFKKIQALQKEKETLAVNYEKEE
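Also: lentivirally expressed fusions sorted by FACS into six bins by GFP to DsRed ratio, PSI derived from sequencing read proportions per bin multiplied by bin number.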

In this data set the parent is B1. Kind of data set: protein stability index of a GFP-peptide fusion (GPS, HEK-293T) (PSI 1-6); higher = more stable. The note with it: c terminus: a fixed tail appended.
As for TLFKKIQALQKEKETLAHNYEKEE, the protein stability index was determined as 3.62.

As to TLFKKIQALQKEKETLAENYEKEE, the protein stability index was determined as 3.2.

TLFKKIQALQKEKETLACNYEKEE: the protein stability index amounted to 2.95.

Take TLFKKIQALQKEKETLALNYEKEE: the protein stability index was found to be 3.79.

In the case of TLFKKIQALQKEKETLANNYEKEE, the protein stability index is 3.63.

Take TLFKKIQALQKEKETLADNYEKEE: the protein stability index is 3.43.

For TLFKKIQALQKEKETLAANYEKEE, the protein stability index was determined as 2.95.

Consider TLFKKIQALQKEKETLAMNYEKEE, for which the protein stability index is 2.81.

With TLFKKIQALQKEKETLAKNYEKEE, the protein stability index came to 3.43.

On to TLFKKIQALQKEKETLAINYEKEE, for which the protein stability index turned out to be 3.04.

Take TLFKKIQMLQKEKETLAVNYEKEE: the protein stability index came to 2.69.

Regarding TLFKKIQHLQKEKETLAVNYEKEE, the protein stability index is 3.25.

With TLFKKIQLLQKEKETLAVNYEKEE, the protein stability index worked out at 3.4.

On to TLFKKIQWLQKEKETLAVNYEKEE, for which the protein stability index came to 2.75.

For the variant TLFKKIQNLQKEKETLAVNYEKEE, the protein stability index is 3.75.

Consider TLFKKIQYLQKEKETLAVNYEKEE, for which the protein stability index is 2.75.

As to TLFKKIQVLQKEKETLAVNYEKEE, the protein stability index stood at 4.34.

As to TLFKKIQALQKEYETLAVNYEKEE, the protein stability index is 2.09.

Take TLFKKIQALQKEPETLAVNYEKEE: the protein stability index came out at 3.51.

In the case of TLFKKIQALQKEIETLAVNYEKEE, the protein stability index was 2.2.

With TLFKKIQALQKEEETLAVNYEKEE, the protein stability index is 3.78.

With TLFKKIQALQKERETLAVNYEKEE, the protein stability index turned out to be 3.49.

Regarding TLFKKIQALQKEGETLAVNYEKEE, the protein stability index amounted to 3.73.

For TLFKKIQALQKEKETLAVNYEWEE, the protein stability index was 2.48.

Regarding TLFKKIQALQKEKETLAVNYEREE, the protein stability index turned out to be 2.94.

For the variant TLFKKIQALQKEKETLAVNYEYEE, the protein stability index turned out to be 2.64.

On to TLFKKIQALQKEKETLAVNYECEE, for which the protein stability index was 3.46.

In the case of TLFKKIQALQKEKETLAVNYEFEE, the protein stability index was determined as 2.57.

Consider TLFKKIQALQKEKETLAVNYEIEE, for which the protein stability index is 2.74.

In the case of TLFKKIQALAKEKETLAVNYEKEE, the protein stability index turned out to be 3.17.

Consider TLFKKIQALWKEKETLAVNYEKEE, for which the protein stability index worked out at 2.65.

Consider TLFKKIQALLKEKETLAVNYEKEE, for which the protein stability index worked out at 2.45.

As to TLFKKIQALHKEKETLAVNYEKEE, the protein stability index came out at 3.3.

TLFKKIQALVKEKETLAVNYEKEE: the protein stability index stood at 2.91.

Regarding TLFKKIQALCKEKETLAVNYEKEE, the protein stability index is 3.17.

TLFKKIQALNKEKETLAVNYEKEE: the protein stability index turned out to be 2.89.

As to TLFKKIQALMKEKETLAVNYEKEE, the protein stability index was found to be 2.42.

On to TLFKKIQALTKEKETLAVNYEKEE, for which the protein stability index was 3.79.

Regarding TLFKKIQALQKFKETLAVNYEKEE, the protein stability index stood at 1.85.

Take TLFKKIQALQKWKETLAVNYEKEE: the protein stability index turned out to be 1.81.

Consider TLFKKIQALQKQKETLAVNYEKEE, for which the protein stability index was 2.64.

Turning to TLFKKIQALQKKKETLAVNYEKEE, the protein stability index came out at 2.59.

As to TLFKKIQALQKIKETLAVNYEKEE, the protein stability index was determined as 2.27.

Turning to TLFKKIQALQKEKETLPVNYEKEE, the protein stability index is 2.84.

As for TLFKKIQALQKEKETLFVNYEKEE, the protein stability index was determined as 2.49.

Consider TLFKKIQALQKEKETLIVNYEKEE, for which the protein stability index turned out to be 2.85.

With TLFKKIQALQKEKETLVVNYEKEE, the protein stability index was 2.89.

As for TLFKKIQALQKEKETLEVNYEKEE, the protein stability index came to 3.56.

As for TLFKKIQALQKEKETLYVNYEKEE, the protein stability index amounted to 2.46.

Consider TLFKKIQALQKEKETLGVNYEKEE, for which the protein stability index turned out to be 3.1.

On to TLFKKIQALQKEKETLKVNYEKEE, for which the protein stability index turned out to be 3.41.

On to TLFKKIQALQKEKETLLVNYEKEE, for which the protein stability index stood at 2.51.

As for TKFKKIQALQKEKETLAVNYEKEE, the protein stability index was 5.2.

As to TFFKKIQALQKEKETLAVNYEKEE, the protein stability index was 4.25.

As to TMFKKIQALQKEKETLAVNYEKEE, the protein stability index was 4.28.

As for TSFKKIQALQKEKETLAVNYEKEE, the protein stability index is 4.83.

Turning to TYFKKIQALQKEKETLAVNYEKEE, the protein stability index came to 3.74.

As for TCFKKIQALQKEKETLAVNYEKEE, the protein stability index came to 4.55.

Consider TGFKKIQALQKEKETLAVNYEKEE, for which the protein stability index was found to be 5.25.

Regarding TNFKKIQALQKEKETLAVNYEKEE, the protein stability index amounted to 5.26.

In the case of TPFKKIQALQKEKETLAVNYEKEE, the protein stability index is 5.29.

In the case of TLFKKILALQKEKETLAVNYEKEE, the protein stability index came out at 2.71.

For TLFKKIWALQKEKETLAVNYEKEE, the protein stability index stood at 1.99.

On to TLFKKIHALQKEKETLAVNYEKEE, for which the protein stability index turned out to be 3.18.

Consider TLFKKIYALQKEKETLAVNYEKEE, for which the protein stability index was determined as 2.55.

For the variant TLFKKIVALQKEKETLAVNYEKEE, the protein stability index was determined as 2.7.

Turning to TLFKKIGALQKEKETLAVNYEKEE, the protein stability index was determined as 3.51.

For TLFKKICALQKEKETLAVNYEKEE, the protein stability index was found to be 2.73.

Consider TLFKKIDALQKEKETLAVNYEKEE, for which the protein stability index is 4.38.

Consider QLFKKIQALQKEKETLAVNYEKEE, for which the protein stability index turned out to be 2.84.

With WLFKKIQALQKEKETLAVNYEKEE, the protein stability index amounted to 1.88.

Turning to ELFKKIQALQKEKETLAVNYEKEE, the protein stability index came out at 3.67.

For DLFKKIQALQKEKETLAVNYEKEE, the protein stability index was 4.01.

Consider ALFKKIQALQKEKETLAVNYEKEE, for which the protein stability index stood at 3.85.

Turning to HLFKKIQALQKEKETLAVNYEKEE, the protein stability index amounted to 3.48.

As for NLFKKIQALQKEKETLAVNYEKEE, the protein stability index was determined as 4.12.

For VLFKKIQALQKEKETLAVNYEKEE, the protein stability index came out at 3.12.

For GLFKKIQALQKEKETLAVNYEKEE, the protein stability index was found to be 3.73.

With CLFKKIQALQKEKETLAVNYEKEE, the protein stability index was determined as 3.34.

Turning to YLFKKIQALQKEKETLAVNYEKEE, the protein stability index stood at 3.01.

Consider ILFKKIQALQKEKETLAVNYEKEE, for which the protein stability index worked out at 2.69.

Take TLFKKIQALQKEKMTLAVNYEKEE: the protein stability index was determined as 2.27.

Consider TLFKKIQALQKEKVTLAVNYEKEE, for which the protein stability index is 2.6.

In the case of TLFKKIQALQKEKYTLAVNYEKEE, the protein stability index was 2.05.

As to TLFKKIQALQKEKTTLAVNYEKEE, the protein stability index is 2.55.

Turning to TLFKKIQALQKEKSTLAVNYEKEE, the protein stability index is 2.46.

Take TLFKKIQALQKEKCTLAVNYEKEE: the protein stability index is 2.89.

In the case of TLFKKIQALQKEKDTLAVNYEKEE, the protein stability index is 3.25.

Take TLFKKIQALQKEKLTLAVNYEKEE: the protein stability index amounted to 1.97.

On to TLFKKIQALQYEKETLAVNYEKEE, for which the protein stability index turned out to be 2.66.

In the case of TLFKKIQALQAEKETLAVNYEKEE, the protein stability index is 3.23.

As for TLFKKIQALQVEKETLAVNYEKEE, the protein stability index came to 2.81.

On to TLFKKIQALQIEKETLAVNYEKEE, for which the protein stability index was determined as 2.85.

As for TLFKKIQALQPEKETLAVNYEKEE, the protein stability index is 4.1.
